The source of these data is US20220133913A1 (KOREA BASIC SCIENCE INSTITUTE, published 2022).

B1: single-domain antibody VHH-22 containing His6 tag (VHH)
VHH: QVQLVESGGGSVQAGGSLRLSCVVSGYTCSVYDMIWYRQPPGKEREFVSLINSNGRTTYADSVKGRFTISQNNAKNTVYLQMNSLKPEDTAMYYCHAACYSPSRLNYWGQGTLVTVSS
notes: also called Nanobody #22
B2: single-domain antibody VHH-25 containing His6 tag (VHH)
VHH: EVQLVESGGGSVQAGGSLRLSCVVSGYTCSVYDMIWYRQPPGKEREFVSLINSNGRTTYADSVKGRFTISQNNAKNTVYLQMNSLKPEDTAMYYCHAACYSPSRLNYWGQGTQVTVSS
notes: also called Nanobody #25; pALT-Avb3 VHH25 product
B3: single-domain antibody VHH-13 containing His6 tag (VHH)
VHH: HVQLVESGGGSVQPGESLRLSCVASGYTVSSSCMAWFRQAPGKEREVVATIVVTSDTTSTFYADSVKGRFTISPDNAKNTLNLQMNSLEPSDTAMYYCAADRKWNVCSRGYRYTPNWANQFTFWGQGTQVTVSS
notes: also called Nanobody #13
B4: clone 37 (VHH)
VHH: HVQLVESGGGSVQTGGSLRLSCAASGYTSSTVYMAWFRQTPGKQREGVAAIYTGGGPTYYADSVKGRFTISQDNAKNTVYLQMNTLKPEDTAMYYCAADRYVYRLVTNWYRPSFYTYWGQGTQVTVSS
B5: clone 10 (VHH)
VHH: EVQLVESGGGSVQAGGSLRLSCVVSGYTCSVYDMIWYRQPPGKEREFVSLINSNGRTTYADSVKGRFTISQNNAKNTVYLQMNSLKPEDTAMYYCHAACYSPSRLNYWGQGTQVTVSS
B6: clone 33 (VHH)
VHH: EVQLVESGGGSVQAGGSLRLSCVVSGYTCSVYDMIWYRQPPGKEREFVSLINSNGRTTYADSVKGRFTISQNNAKNTVYLQMNSLKPEDTAMYYCHAACYSPSRLNYWGQGTQVTVSS
B7: clone 26 (VHH)
VHH: QVQLVESGGGSVQAGGSLRLSCVVSGYTCSVYDMIWYRQPPGKEREFVSLINSNGRTTYADSVKGRFTISQNNAKNTVYLQMNSLKPEDTAMYYCHAACYSPSRLNYWGQGTLVTVSS
B8: clone 8 (VHH)
VHH: DVQLVESGGGSVQPGGSLRLSCAASGYTVENSCMAWFRQAPGKEREVVATIVTNNATGTFYADSVKGRFTVSQDNAKNTLNLQMNSLEPEDTAMYYCAADTKWIVCSRGYRYTPNWANQFKYWGQGTQVTVSS
B9: clone 34 (VHH)
VHH: DVQLVESGGGSVQPGGSLRLSCAASGYTVENSCMAWFRQAPGKEREVVATIVTNNATGTFYADSVKGRFTVSQDNAKNTLNLQMNSLEPEDTAMYYCAADTKWIVCSRGYRYTPNWANQFKYWGQGTQVTVSS
B10: clone 36 (VHH)
VHH: DVQLVESGGGSVQPGGSLRLSCAASGYTVENSCMAWFRQAPGKEREVVATIVTNNATGTFYADSVKGRFTVSQDNAKNTLNLQMNSLEPEDTAMYYCAADTKWIVCSRGYRYTPNWANQFKYWGQGTQVTVSS
B11: clone 40 (VHH)
VHH: DVQLVESGGGSVQPGGSLRLSCAASGYTVDNSCMAWFRQAPGKEREVVATIVTNNATSTFYADSVKGRFTVSHDNAKNTLNLQMNTLEPEDTAMYYCAADTKWIVCSRGYRYTPNWANHFNYWGQGTLVTVSS
B12: clone 30 (VHH)
VHH: DVQLVESGGGSVQPGGSLRLSCAASGYTVDNSCMAWFRQAPGKEREVVATIVTNNATSTFYADSVKGRFTVSHDNAKNTLNLQMNTLEPEDTAMYYCAADTKWIVCSRGYRYTPNWANHFNYWGQGTLVTVSS
B13: clone 38 (VHH)
VHH: DVQLVESGGGSVQPGGSLRLSCAASGYTVDNSCMAWFRQAPGKEREVVATIVTNNATSTFYADSVKGRFTVSHDNAKNTLNLQMNTLEPEDTAMYYCAADTKWIVCSRGYRYTPNWANHFNYWGQGTLVTVSS
B14: clone 2 (VHH)
VHH: EVQLVESGGGSVQPGESLRLSCVASGYTVSSSCMAWFRQAPGKEREVVATIVVTSDTTSTFYADSVKGRFTISPDNAKNTLNLQMNSLEPPDTAMYYCAADRKWNVCSRGYRYTPNWANQFTFWGQGTQVTVSS
B15: clone 28 (VHH)
VHH: EVQLVESGGGSVQPGESLRLSCVASGYTVSSSCMAWFRQAPGKEREVVATIVVTSDTTSTFYADSVKGRFTISPDNAKNTLNLQMNSLEPSDTAMYYCAADRKWNVCSRGYRYTPNWANQFTFWGQGTQVTVSS
B16: clone 19 (VHH)
VHH: EVQLVESGGGSVQPGESLRLSCVASGYTVSSSCMAWFRQAPGKEREVVATIVVTSDTTSTFYADSVKGRFTISPDNAKNTLNLQMNSLEPSDTAMYYCAADRKWNVCSRGYRYTPNWANQFTFWGQGTQVTVSS
B17: clone 32 (VHH)
VHH: EVQLVESGGGSVQPGESLRLSCVASGYTVSSSCMAWFRQAPGKEREVVATIVVTSDTTSTFYADSVKGRFTISPDNAKNTLNLQMNSLEPSDTAMYYCAADRKWNVCSRGYRYTPNWANQFTFWGQGTQVTVSS
B18: clone 14 (VHH)
VHH: DVQLVESGGGSVQPGESLRLSCVASGYTVSSSCMAWFRQAPGKEREVVATIVVTSDTTSTFYADSVKGRFTISPDNAKNTLNLQMNSLEPSDTAMYYCAADRKWNVCSRGYRYTPNWANQFTFWGQGTLVTVSS
B19: clone 27 (VHH)
VHH: HVQLVESGGGSVQPGESLRLSCVASGYTVSSSCMAWFRQAPGKEREVVATIVVTSDTTSTFYADSVKGRFTISPDNAKNTLNLQMNSLEPSDTAMYYCAADRKWNVCSRGYRYTPNWANQFTFWGQGTQVTVSS
B20: clone 29 (VHH)
VHH: DVQLVESGGGSVQPGESLRLSCVASGYTVSSSCMAWFRQAPGKEREVVATIVVTSDTTSTFYADSVKGRFTISPDNAKNTLNLQMNSLEPSDTAMYYCAADRKWNVCSRGYRYTPNWANQFTFWGQGTLVTVSS
B21: clone 21 (VHH)
VHH: HVQLVESGGGSVQPGESLRLSCVASGYTVSSSCMAWFRQAPGKEREVVATIVVTSDTTSTFYADSVKGRFTISPDNAKNTLNLQMNSLEPSDTAMYYCAADRKWNVCSRGYRYTPNWANQFTFWGQGTQVTVSS
B22: clone 3 (VHH)
VHH: EVQLVESGGGSVQPGESLRLSCVASGYTVSSSCMAWFRQAPGKEREVVATIVVTSDTTSTFYADSVKGRFTISPDNAKNTLNLQMNSLEPPDTAMYYCAADRKWNVCSRGYRYTPNWANQFTFWGQGTQVTVSS
B23: clone 4 (VHH)
VHH: EVQLVESGGGSVQPGESLRLSCVASGYTVSSSCMAWFRQAPGKEREVVATIVVTSDTTSTFYADSVKGRFTISPDNAKNTLNLQMNSLEPPDTAMYYCAADRKWNVCSRGYRYTPNWANQFTFWGQGTQVTVSS
B24: clone 39 (VHH)
VHH: EVQLVESGGGSVQPGESLRLSCVASGYTVSSSCMAWFRQAPGKEREVVATIVVTSDTTSTFYADSVKGRFTISPDNAKNTLNLQMNSLEPPDTAMYYCAADRKWNVCSRGYRYTPNWANQFTFWGQGTQVTVSS

T1 sequence (P06756 31-992 limits assumed, chain 1 of 2): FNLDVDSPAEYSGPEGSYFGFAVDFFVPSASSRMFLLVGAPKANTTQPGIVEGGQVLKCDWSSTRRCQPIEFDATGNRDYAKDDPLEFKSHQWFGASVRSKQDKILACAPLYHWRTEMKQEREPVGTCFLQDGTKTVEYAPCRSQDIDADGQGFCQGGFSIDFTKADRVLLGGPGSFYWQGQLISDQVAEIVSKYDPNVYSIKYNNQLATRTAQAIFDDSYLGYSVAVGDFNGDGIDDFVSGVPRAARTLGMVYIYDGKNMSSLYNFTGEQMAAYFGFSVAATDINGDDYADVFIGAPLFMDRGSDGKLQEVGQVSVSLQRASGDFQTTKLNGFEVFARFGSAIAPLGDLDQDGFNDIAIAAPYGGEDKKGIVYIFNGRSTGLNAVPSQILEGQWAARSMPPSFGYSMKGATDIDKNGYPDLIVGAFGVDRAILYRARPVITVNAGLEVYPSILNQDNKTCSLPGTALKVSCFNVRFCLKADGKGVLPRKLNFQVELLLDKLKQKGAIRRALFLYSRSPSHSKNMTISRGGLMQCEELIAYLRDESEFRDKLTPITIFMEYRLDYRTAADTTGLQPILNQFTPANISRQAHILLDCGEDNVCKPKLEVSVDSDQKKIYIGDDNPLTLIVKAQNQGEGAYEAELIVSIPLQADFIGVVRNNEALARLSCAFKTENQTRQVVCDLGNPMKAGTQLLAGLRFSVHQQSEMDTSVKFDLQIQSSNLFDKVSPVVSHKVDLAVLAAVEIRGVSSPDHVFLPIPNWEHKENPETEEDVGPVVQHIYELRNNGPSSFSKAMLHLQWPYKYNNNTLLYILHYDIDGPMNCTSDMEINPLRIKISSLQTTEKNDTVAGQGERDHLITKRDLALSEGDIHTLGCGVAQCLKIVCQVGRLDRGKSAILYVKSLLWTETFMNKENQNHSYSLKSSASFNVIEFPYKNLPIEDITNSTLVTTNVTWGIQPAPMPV
T1 sequence (P05106 27-718 limits assumed, chain 2 of 2): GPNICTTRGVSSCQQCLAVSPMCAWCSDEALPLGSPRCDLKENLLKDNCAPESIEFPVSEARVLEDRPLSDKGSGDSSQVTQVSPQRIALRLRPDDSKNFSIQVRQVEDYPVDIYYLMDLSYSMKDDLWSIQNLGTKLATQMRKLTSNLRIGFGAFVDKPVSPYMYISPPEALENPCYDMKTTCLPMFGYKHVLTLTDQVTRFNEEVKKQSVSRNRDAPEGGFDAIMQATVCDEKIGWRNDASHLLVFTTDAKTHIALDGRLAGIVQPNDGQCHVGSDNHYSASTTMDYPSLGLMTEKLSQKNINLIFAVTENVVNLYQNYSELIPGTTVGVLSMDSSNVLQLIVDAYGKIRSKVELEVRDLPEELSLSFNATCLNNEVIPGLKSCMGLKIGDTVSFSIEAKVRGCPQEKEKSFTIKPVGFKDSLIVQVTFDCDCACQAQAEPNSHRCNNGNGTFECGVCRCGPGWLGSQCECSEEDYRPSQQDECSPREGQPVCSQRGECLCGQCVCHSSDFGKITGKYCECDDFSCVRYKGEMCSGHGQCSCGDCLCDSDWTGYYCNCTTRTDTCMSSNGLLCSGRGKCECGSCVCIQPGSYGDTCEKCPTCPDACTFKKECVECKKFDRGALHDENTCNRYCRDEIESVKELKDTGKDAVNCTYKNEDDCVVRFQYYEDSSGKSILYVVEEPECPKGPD

The first test addresses T1, human αvβ3 integrin ITGAVB3 (human, UniProt P06756 31-992; P05106 27-718, limits assumed).
T1 construct: Recombinant heterodimer used as immunogen, ELISA coating and SPR ligand; also called A5B3; A5b3
Nature of the test: SPR, αvβ3 integrin immobilised on CMDH chip, nanobody as analyte. The protocol:
Specifically, a CMDH chip (Carboxymethyl Dextran Hydrogel Surface Sensor Chip, Reichert Technologies) coated with Dextran was mounted on an SPR equipment (Reichert SR7500DC system) to perform immobilization of αᵥβ₃ integrin antigen. Then, an analysis of the affinity of the selected antibody based on the concentration was performed.
Broadly, the Kd is the free concentration of one partner at which half of the binding sites on the other are occupied at equilibrium, for simple one-to-one binding. Low readings indicate higher affinity, high ones lower affinity. What is called koff is a measure of how fast the partners let go of each other. Higher therefore signals a short-lived complex. Usually kon stands for a measure of how fast the partners come together. The low end stands for slower complex formation, the high end for faster complex formation. Take B1: the Kd was 15.5 nM, the koff amounted to 0.000974 s⁻¹ and the kon was 62700 M⁻¹ s⁻¹. Turning to B2, the Kd worked out at 8.83 nM, the koff came to 0.000871 s⁻¹ and the on-rate (kon) stood at 98600 M⁻¹ s⁻¹. The corresponding values for B3 are 9.38 nM, 0.00108 s⁻¹ and 115000 M⁻¹ s⁻¹.

Another test deals with T1, human αvβ3 integrin ITGAVB3. Nature of the test: phage ELISA, coated ITGAVB3, anti-M13-HRP, 490 nm. As to the method: Further, in order to perform phage ELISA, 2.5 μg/mL to […] of a target protein and a control protein were coated at 4 degrees C. using a coating buffer, and the wells were washed 3 times with 200 μL washing buffer per well. The wells were blocked with 200 μL PBS-M for two hours at room temperature. The blocking buffer was removed and the plate was washed 6 times with the washing solution. Thereafter, 100 μL of phage solution was added to the washing buffer per well and incubation was executed at room temperature for 1 to 2 hours. Then, washing was performed 6 times with washing buffer. HRP-binding anti-M13 antibody (GE healthcare) was diluted with 1:5,000 blocking buffer. 100 μL of diluted conjugate was added onto each well, and incubation was performed at room temperature for 1 hour, and washing was carried out 6 times with washing buffer. The HRP substrate solution was prepared as follows: A stock solution of OPD was prepared by dissolving 22 mg OPD (Sigma) in 100 mL of […] sodium citrate (pH 4.0), and 36 μL 30% H₂O₂ was added to 21 mL of OPL stock solution immediately before the detection step. 100 μL of substrate solution was added to each well and incubation was performed for 30 minutes at room temperature. Plates were analyzed using a micro plate reader set at 490 nm.
(In an ELISA, binding on a coated surface is turned into a signal by an enzyme label.)
B4 registered an OD490 of 2.09. Same read-out and setting: the value for B5 was 2.14; that for B6 was 1.86; that for B7 was 2.01. Same read-out and setting: the value for B8 was 1.95. B9: the OD490 amounted to 2.01. With B10, the OD490 was found to be 1.98. The same measure, in the same setting: the value for B11 was 2.04. For B12, the OD490 was 1.97.

For B13, the OD490 came to 2.12. Still for that read-out and setting: the value for B14 was 2.02; that for B15 was 1.94. The same measure, in the same setting: the value for B16 was 1.94; that for B17 was 1.88; that for B18 was 1.93. Turning to B19, the OD490 was 1.97. B20 had an OD490 of 2.04. Consider B21, for which the OD490 came out at 1.95. In turn, B22 had an OD490 of 1.88. The same measure, in the same setting: the value for B23 was 2.16; that for B24 was 1.8.
